# Measurements from patent publication US20220306744A1.
# Legend:
# [1] = molecular target: human PD-1 expressed on cells (CHO TREX human PD1 cell line, full-length human PD-1 sequence) (human) (UniProt Q15116); test: cell-based or functional assay
# [2] = molecular target: recombinant human PD-1 Fc chimera (human) (UniProt Q15116); test: SPR Biacore T200, single cycle kinetics, human Fc tagged PD-1 captured on Protein G, 1:1 model
# [3] = molecular target: cynomolgus PD-1 recombinant protein (Acro Biosystems cat no. PD-1-C5254) (cynomolgus); test: HTRF binding assay, 2 nM recombinant PD1, anti His-D2 and anti human-Fc cryptate
# [4] = molecular target: recombinant human PD-1 Fc chimera (human) (UniProt Q15116); test: as above
# [5] = molecular target: human PD-1 expressed on cells (CHO TREX human PD1 cell line, full-length human PD-1 sequence) (human) (UniProt Q15116); test: FMAT: inhibition of human Fc tagged human PD-L1 (400 pM) binding to CHO human PD-1 cells
# [6] = molecular target: Strep tagged recombinant human PD-1 (human) (UniProt Q15116); test: SPR Biacore T200, single cycle kinetics, Strep tagged human PD-1 amine coupled, 1:1 model
# [7] = molecular target: recombinant human PD-1 Fc chimera (human) (UniProt Q15116); test: SPR Biacore T200, single cycle kinetics, human Fc tagged PD-1 captured on Protein G, 1:1 model; second line of values in the continuation row of the name
# recombinant human PD-1 Fc chimera (human), sequence (Q15116 25-167 limits assumed, stated change not applied): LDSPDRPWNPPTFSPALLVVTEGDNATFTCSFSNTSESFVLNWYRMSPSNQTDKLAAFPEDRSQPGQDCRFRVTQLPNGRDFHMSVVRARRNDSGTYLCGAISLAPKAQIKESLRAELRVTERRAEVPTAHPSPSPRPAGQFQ
# Strep tagged recombinant human PD-1 (human), sequence (Q15116 25-167 limits assumed): as the sequence (Q15116 25-167 limits assumed, stated change not applied) above
# human PD-1 expressed on cells (CHO TREX human PD1 cell line, full-length human PD-1 sequence) (human), sequence (Q15116 21-288): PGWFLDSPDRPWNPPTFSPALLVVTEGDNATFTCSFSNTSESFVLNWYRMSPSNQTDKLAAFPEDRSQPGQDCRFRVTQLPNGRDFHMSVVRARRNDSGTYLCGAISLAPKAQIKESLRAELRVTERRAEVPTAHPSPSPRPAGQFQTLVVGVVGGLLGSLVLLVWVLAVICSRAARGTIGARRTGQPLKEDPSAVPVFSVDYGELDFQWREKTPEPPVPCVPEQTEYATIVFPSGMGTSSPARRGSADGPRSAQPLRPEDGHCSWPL
binder,measurement,setting,value
"1.92b-4GS-1.39a-4GS-MSA binder (protein, part only; not given: mouse serum albumin binder, part only) chain, part: EVQLVESGGGLVKPGGSLRLSCAASGFTFSDESMTWMRQAPGKGLEWVSYISSGGGVKFYADSVKGRFTISRDNAKNSLYLQMNSLRAEDTAVYYCAREAPLRLGESPHDAFDISGQGTMVTVSSGGGGSGGGGSGGGGSGGGGSEVQLVESGGGLVQPGRSLRLSCAASGFTFDDYALHWVRQAPGKDLEWVSGISWNGGSYGYADSVKGRFTISRDNAKNSLYLQMNSLRAEDTALYYCVREKGPGLTGSTADYYGLDAWGQGTMVTVSSGGGGSGGGGSGGGGSGGGGS","EC50 (M), NFAT-Luciferase reporter gene assay",[1],4.7e-09 M
"1.57b-4GS-MSA binder-4GS-1.1a (protein, part only; not given: Middle albumin binder and linkers, not shown: another chain or arm of the molecule; large carriers; small tags and cut ends, In the real molecule both VH are parts of one polypeptide: 1.57b, 4GS (SEQ ID NO 1105), MSA binder VH, 4GS (SEQ ID NO 1105), 1.1a. They are given here as two separate chains because the middle domain has no letters.) VH 1: QVQLVESGGGLVKPGGSLRLSCAASGFTFSDNSMTWMRQAPGKGLEWVSYISSGGGVIFYADSVKGRFTISRDNAKNSLYLQMNSLRADDTAVYYCAREAPLRLGESPHDAFDISGQGTMVTVSS VH 2: EVQLLESGGGSVQPGRSLRLSCAASGFTFDDHAMHWVRQAPGKGLEWVSGISWNSGSMGYADSVKDRFTISRDNAKSSLYLQMNSLRAEDTALYYCVREKGPGLTGSTADYYGLDVWGQGTMVTVSS","EC50 (M), NFAT-Luciferase reporter gene assay",[1],3.2e-09 M
same,Kd,[2],8.06 pM
same,koff,[2],4.23e-06 s⁻¹
same,kon,[2],524000 M⁻¹ s⁻¹
"1.57b-4GS-1.1a-4GS-MSA binder (protein, part only; not given: Albumin binder, second linker, His tag, not shown: another chain or arm of the molecule; large carriers; small tags and cut ends) QVQLVESGGGLVKPGGSLRLSCAASGFTFSDNSMTWMRQAPGKGLEWVSYISSGGGVIFYADSVKGRFTISRDNAKNSLYLQMNSLRADDTAVYYCAREAPLRLGESPHDAFDISGQGTMVTVSSGGGGSGGGGSGGGGSGGGGSEVQLLESGGGSVQPGRSLRLSCAASGFTFDDHAMHWVRQAPGKGLEWVSGISWNSGSMGYADSVKDRFTISRDNAKSSLYLQMNSLRAEDTALYYCVREKGPGLTGSTADYYGLDVWGQGTMVTVSS","EC50 (M), NFAT-Luciferase reporter gene assay",[1],2.5e-09 M
same,EC50,[3],1.6 nM
same,EC50,[4],1 nM
same,IC50,[5],4.4 nM
same,Kd,[6],0.134 nM
same,koff,[6],4.68e-05 s⁻¹
same,kon,[6],349000 M⁻¹ s⁻¹
same,Kd,[2],0.0517 pM
same,koff,[2],2.67e-08 s⁻¹
same,kon,[2],516000 M⁻¹ s⁻¹
same,Kd,[7],0.0166 pM
same,koff,[7],1.32e-08 s⁻¹
same,kon,[7],793000 M⁻¹ s⁻¹
